Data on 32 sequences can be found in the supplement of paper PMC9170038.

This data set deals with MS2 coat protein. The data set is described as follows: apparent KD of MS2 coat protein; higher = weaker reporter binding. Conditions: Eterna round: R107. The gist of the method:
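Designed RNA switches, transcribed on-chip from Illumina sequencing clusters, were titrated with SNAP-549-labelled MS2 coat protein from 0.7 or 1.5 nM to 3 µM in twofold steps. The solution was 100 mM Tris-HCl pH 7.5, 80 mM KCl, 4 mM MgCl2, with constant ligand or without it. Apparent KD is the median over each design's normalised cluster binding-curve fits.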

The mark [1] stands for this setting: input ligand: theophylline 20 uM.
Where [2] appears, read: input ligand: tryptophan 2.4 mM.
Where [3] appears, read: input ligand: theophylline 2 mM.

For the sequence “UAGAAGAACAUGCGGGCUCCGGACGGUGAUACCAGAUCGAAAAGGAUCCCUUGGCAGCACUGCACAUGAGGAUCACCCAUGUGCA [theeternabot_exclusion_MS2_Theo_A_7]”, the “apparent KD of MS2 coat protein” value (input ligand: arginine 13.2 mM) was found to be 11.8 nM, the “apparent KD of MS2 coat protein” value under setting [1] was 11 nM and the “apparent KD of MS2 coat protein” value under setting [2] was 10.1 nM.
Regarding “UAGUCCGCGACGGCCGCCACUCGCUGAUGCACAUGUGUCCGGGACAUGAGGAUCACCCAUGUUUCGAGGACCGGGUCGAUCCUAA [Same State Tryptophan B GF 5]”, the “apparent KD of MS2 coat protein” value is, setting by setting: (input ligand: arginine 13.2 mM) 37.5 nM; under setting [1], 81.5 nM; under setting [3], 91.6 nM.
With “UAUCCACAUGAGGAUCACCCAUGUUAGGAAGGAGCGGUGAAUGAACCAGGUAGGUCGCCUAGCUGAGGACCGUCGAUGGAUUCGU [Exclusion - Arginine A (Freestyle 16)]”, the “apparent KD of MS2 coat protein” value runs as follows: (input ligand: arginine 13.2 mM) 13.7 nM; (input ligand: none) 27.3 nM; under setting [3], 28.2 nM; under setting [2], 18.4 nM.
For the sequence “UAUCUACAUGAAUAGGUUAUUCGAUUAUUUCGAGGACCGGUACGGCCGCCACUCGUUAACAUAUACAUGAGGAUCACCCAUGUUA [JR_Nu_SSTryptoA_Sub024]”, the “apparent KD of MS2 coat protein” value runs as follows: (input ligand: arginine 13.2 mM) 16 nM; under setting [1], 22.7 nM; under setting [3], 21.5 nM.
For “UCAAUACAGUCGGCCGCCACUGUAACCAAACCUACAUACCAACAUGAGGAUCACCCAUGUUUAUACAGGACCGGGACCUCUAUGA [theeternabot_sameState_MS2_Trp_B_10]” the same measures were 32.6 nM, 45.8 nM and 46.4 nM.
As for “UCACAUGAGGAUCACCCAUGUGUCAGAGAAGGAGCGGCCGCAAGGCCAGGUAGGUCGCUCGGGUAUGGUGAGGUUCACCCGUGUG [#1 Exclusion - Arginine A Attempt #13 (Inspired by cyborg)]”, the “apparent KD of MS2 coat protein” value (input ligand: arginine 13.2 mM) was 28.3 nM; the “apparent KD of MS2 coat protein” value (input ligand: none) worked out at 47.3 nM; the “apparent KD of MS2 coat protein” value under setting [1] is 73 nM; the “apparent KD of MS2 coat protein” value under setting [3] was 57 nM; the “apparent KD of MS2 coat protein” value under setting [2] was 56.7 nM.
Consider “UCACGGCACUGAAGGAGCGAGUUGACAAACAUGAGGAUCACCCAUGUUAUGGGUUGUUAAUCUCAGGUAGGUCGCAGUUGUCGUG [Same State Arginine B GF 21]”, for which the “apparent KD of MS2 coat protein” value reads like this: (input ligand: arginine 13.2 mM) 163 nM; (input ligand: none) 379 nM; under setting [1], 418 nM; under setting [3], 458 nM; under setting [2], 388 nM.
Take “UCCUCAUGGCAUGAUACCAGACCUAACAUGAGGAUCACCCAUGUAUCAGGCAAUUGUUACGUCCCUUGGCAGCAUGUAUGCCGAC [Theo B SS t4]”: the “apparent KD of MS2 coat protein” value came to 33.6 nM (input ligand: arginine 13.2 mM), 91.1 nM under setting [1] and 60.8 nM under setting [2].
As to “UCCUGCAGAGCGGCCGCCACUGUAUUGCGUGAGGAUGACCCAACAUGAGGAUCACCCAUGUUGUUUAGGACCGGGCUUGCCACGA [opmullin%]”, the “apparent KD of MS2 coat protein” value is 13.7 nM (input ligand: arginine 13.2 mM), 21.2 nM under setting [1] and 15 nM under setting [3].
Consider “UCGACAGUGAACGAUACCAGCGUCACGUGGCCGGUGGUCACAUGAGGAUCACCCAUGUAACGCCCUUGGCAGCGUGCACGUAUCC [Berisoor]”, for which the “apparent KD of MS2 coat protein” value came out at 17.5 nM (input ligand: arginine 13.2 mM), 78 nM under setting [1] and 25.5 nM under setting [2].
For “UCGCAUUGCUCAGAUACCAGACAUGAGGAUCACCCAUGUACCAAGGUACCCGAAAGGAAUGUCCCUUGGCAGCUGAGCAAUGCGU [MAT - Exclusion Theophlline B - Mod of Eli - D19]” the same measures were 10.5 nM, 14 nM and 10.4 nM.
As for “UCGCCCGGGUCGGCCGCCACUGAGGUGAUGUGACAUGAGGAUCACCCAUGUUGUCAUGUGGCACAUAGGACCGGGACCCGGGCGA [Exclusion - Tryptophan B Attempt #3 (HarryS)]”, the “apparent KD of MS2 coat protein” value came to 16.4 nM (input ligand: arginine 13.2 mM); 26.3 nM (input ligand: none); 41 nM under setting [1]; 16.8 nM under setting [3]; 22.5 nM under setting [2].
Turning to “UCGCUCGCCGUAAGGCGAGCGAGUUGCGAUACCAGCCCGGAAACGGGCCCUUGGCAGCGCACAUGAGGAUCACCCAUGUCAUGUU [#1 Exclusion - Theophylline A Attempt #5 (HarryS)]”, the “apparent KD of MS2 coat protein” value reads like this: (input ligand: arginine 13.2 mM) 18.3 nM; (input ligand: none) 19.5 nM; under setting [1], 35.1 nM; under setting [3], 24.3 nM; under setting [2], 19.7 nM.
For “UCGUGUGUUUCGGAUACCAGUGAAAUCGAUACAUGAGGAUCACCCAUGUGAGAGGAUGUACACCCUUGGCAGCUGGCUGUUGCGG [zezmullin]”, the “apparent KD of MS2 coat protein” value is, setting by setting: (input ligand: arginine 13.2 mM) 24 nM; under setting [1], 36.2 nM; under setting [2], 34.2 nM.
For “UCUUACUUGGUAGAUACCAGCGUGUUAUCUUUCUUUUGACAUGAGGAUCACCCAUGUAUAUGCCCUUGGCAGCUGCAUAGUGUGU [#02 Same State - Theophylline B]” the same measures were 26.9 nM, 41.7 nM and 30.1 nM.
Regarding “UCUUACUUGGUAGAUACCAGCGUGUUAUCUUUCUUUUGACAUGAGGAUCACCCAUGUAUAUGCCCUUGGCAGCUGCGUAGUGUGU [#03 Same State - Theophylline B]”, the “apparent KD of MS2 coat protein” value (input ligand: arginine 13.2 mM) was 21.6 nM, the “apparent KD of MS2 coat protein” value under setting [1] is 35.7 nM and the “apparent KD of MS2 coat protein” value under setting [2] worked out at 27.4 nM.
In the case of “UCUUUUUUCUUUUCUUCUUUCGGUUCUUUUCGAGGACCGGUACGGCCGCCACUCGAAACAUGAGGAUCACCCAUGUUUUGGUUUU [Trypto a]”, the “apparent KD of MS2 coat protein” value by setting is: (input ligand: arginine 13.2 mM) 15.9 nM; under setting [1], 17.6 nM; under setting [3], 13.7 nM.
Turning to “UGACAUUGCUCAGAUACCAGACAUGAGGAUCACCCAUGUACCAAGAAAACGUACAAUAAUGUCCCUUGGCAGCUGAGCAAUGUCU [TheoBX 9 #MS2Left #Theo2]”, the “apparent KD of MS2 coat protein” value is, setting by setting: (input ligand: arginine 13.2 mM) 64.8 nM; under setting [1], 180 nM; under setting [2], 93.6 nM.
“UGACAUUGCUCAGAUACCAGACAUGAGGAUCACCCAUGUACCAAGAAAGUACAAUAAAAUGUCCCUUGGCAGCUGAGCAAUGUCU [TheoBX 8 #MS2Left #Theo2]”: the “apparent KD of MS2 coat protein” value (input ligand: arginine 13.2 mM) came out at 61.2 nM, the “apparent KD of MS2 coat protein” value under setting [1] stood at 137 nM and the “apparent KD of MS2 coat protein” value under setting [2] came out at 66.9 nM.
On to “UGACAUUGCUGCGAUACCAGACAUGAGGAUCACCCAUGUGCCAAAUAAACGUACAUAAAUGUCCCUUGGCAGCGCAGCAAUGUCU [MAT - Exclusion Theophlline B - Mod of Eli - D29]”, for which the “apparent KD of MS2 coat protein” value runs as follows: (input ligand: arginine 13.2 mM) 44.9 nM; under setting [1], 112 nM; under setting [2], 61 nM.
Regarding “UGAUGGUACGGAAGGAGCGUGUAAGAACAAGAACAUGAGGAUCACCCAUGUAUUAAUUUAACACAGGUAGGUCGCCGAGUUAUUG [11.G]”, the “apparent KD of MS2 coat protein” value (input ligand: arginine 13.2 mM) is 17.8 nM; the “apparent KD of MS2 coat protein” value (input ligand: none) was determined as 17.3 nM; the “apparent KD of MS2 coat protein” value under setting [1] was 26.7 nM; the “apparent KD of MS2 coat protein” value under setting [3] worked out at 23.2 nM; the “apparent KD of MS2 coat protein” value under setting [2] came to 16.5 nM.
Regarding “UGCAAAUGAUGAGAUACCAGUUCAGUUAAAUACAUGAGGAUCACCCAUGUCAGGGAACUCAACCCUUGGCAGCUCGAUGCACUCA [theeternabot_sameState_MS2_Theo_B_43]”, the “apparent KD of MS2 coat protein” value worked out at 48 nM (input ligand: arginine 13.2 mM), 56.7 nM under setting [1] and 59 nM under setting [2].
Regarding “UGCCCUGCGAGCGCUCGCAGGGCAGCGGAUACCAGCGAGGUCCAUCGCCCUUGGCAGCCGAACAUGAGGAUCACCCAUGUCGGUG [Same State - Theophylline A Attempt #9 (HarryS)]”, the “apparent KD of MS2 coat protein” value was found to be 11.4 nM (input ligand: arginine 13.2 mM); 14.1 nM (input ligand: none); 18.9 nM under setting [1]; 144 nM under setting [3]; 13.2 nM under setting [2].
With “UGCUAGUGAUCGGCCGCCACUGGCACCUUGAGGAUCCUGCUAAAGUACAUGAGGAUCACCCAUGUCAGGACCGGGAUCAUCAGUG [Onveusonri]”, the “apparent KD of MS2 coat protein” value (input ligand: arginine 13.2 mM) was 9.02 nM, the “apparent KD of MS2 coat protein” value under setting [1] is 11.8 nM and the “apparent KD of MS2 coat protein” value under setting [3] is 10.8 nM.
For the sequence “UGGCGAGAAGGAAGGAGCGUCAGCUGAGUUACAUGAGGAUCACCCAUGUUUUACAUUGUGUGACAGGUAGGUCGCCUUCUGCCCU [SS-ArgB20]”, the “apparent KD of MS2 coat protein” value was found to be 15.7 nM (input ligand: arginine 13.2 mM); 14 nM (input ligand: none); 18.8 nM under setting [1]; 16.9 nM under setting [3]; 13.5 nM under setting [2].
For “UGGGUACAUGAGGAUCACCCAUGUACUGAAGGAGCGGGACGAAUCUCAGGUAGGUCGCAGACAUGAGGAUCACCCAUGUAGUGGA [Exclusion Arginine A GF 15]” the same measures were 13.9 nM, 15.9 nM, 17.8 nM, 17.2 nM and 14.6 nM.
As to “UGGGUAGCAUAGAUUGAUAGUUAAACUGAAGGAGCGAGAAUAAUCUCAGGUAGGUCGCAGACAUGAGGAUCACCCAUGUAGAUGG [Same State Arginine A GF16]”, the “apparent KD of MS2 coat protein” value is, setting by setting: (input ligand: arginine 13.2 mM) 47 nM; (input ligand: none) 122 nM; under setting [1], 129 nM; under setting [3], 88.8 nM; under setting [2], 68 nM.
In the case of “UGGGUCGGAUGAGUAAAUUGUCCGACGUAUCGAGGACCGGUACGGCCGCCACUCGGUUGUACAUGAGGAUCACCCAUGUCAGGGU [#1 Same State - Tryptophan A Attempt #16 (HarryS)]”, the “apparent KD of MS2 coat protein” value stood at 40.5 nM (input ligand: arginine 13.2 mM); 436 nM (input ligand: none); 351 nM under setting [1]; 536 nM under setting [3]; 206 nM under setting [2].
“UGGGUCGGAUGAGUAAAUUGUCGGACUCAUCGAGGACCGGUACGGCCGCCACUCGGUUGUACAUGAGGAUCACCCAUGUCAGGGU [#1 Same State - Tryptophan A Attempt #17 (HarryS)]”: the “apparent KD of MS2 coat protein” value by setting is: (input ligand: arginine 13.2 mM) 47.4 nM; under setting [1], 336 nM; under setting [3], 749 nM.
For “UGGUACAUGAGGAUCACCCAUGUCCUCAUCCGAGGACCGGUACGGCCGCCACUCGAAAUUGCGAUCGGCACAAAACAAAUGCUUG [theeternabot_sameState_MS2_Trp_A_39]” the same measures were 87.8 nM, 205 nM and 179 nM.
“UGGUACAUGAGGAUCACCCAUGUUCCAGAUACCAGUGUCCCGCUGCACCCUUGGCAGCUGGUGGUACAUGAGGAUCACCCAUGUG [Exclusion Theophylline A GF11]”: the “apparent KD of MS2 coat protein” value runs as follows: (input ligand: arginine 13.2 mM) 24.3 nM; (input ligand: none) 34.1 nM; under setting [1], 42.7 nM; under setting [3], 56.4 nM; under setting [2], 39 nM.
For “UGGUAUGUAGGAAGGAGCGCAUACUUCACAUGAGGAUCACCCAUGUCAAGACGUGAGUCAGUGCAGGUAGGUCGCCUAGUUAUGA [Same State - Arginine B (Freestyle 21)]” the same measures were 31.2 nM, 42.9 nM, 49.1 nM, 36.1 nM and 33.7 nM.
